T1: MutS (Escherichia coli, UniProt P23909 1-853)
T1 sequence: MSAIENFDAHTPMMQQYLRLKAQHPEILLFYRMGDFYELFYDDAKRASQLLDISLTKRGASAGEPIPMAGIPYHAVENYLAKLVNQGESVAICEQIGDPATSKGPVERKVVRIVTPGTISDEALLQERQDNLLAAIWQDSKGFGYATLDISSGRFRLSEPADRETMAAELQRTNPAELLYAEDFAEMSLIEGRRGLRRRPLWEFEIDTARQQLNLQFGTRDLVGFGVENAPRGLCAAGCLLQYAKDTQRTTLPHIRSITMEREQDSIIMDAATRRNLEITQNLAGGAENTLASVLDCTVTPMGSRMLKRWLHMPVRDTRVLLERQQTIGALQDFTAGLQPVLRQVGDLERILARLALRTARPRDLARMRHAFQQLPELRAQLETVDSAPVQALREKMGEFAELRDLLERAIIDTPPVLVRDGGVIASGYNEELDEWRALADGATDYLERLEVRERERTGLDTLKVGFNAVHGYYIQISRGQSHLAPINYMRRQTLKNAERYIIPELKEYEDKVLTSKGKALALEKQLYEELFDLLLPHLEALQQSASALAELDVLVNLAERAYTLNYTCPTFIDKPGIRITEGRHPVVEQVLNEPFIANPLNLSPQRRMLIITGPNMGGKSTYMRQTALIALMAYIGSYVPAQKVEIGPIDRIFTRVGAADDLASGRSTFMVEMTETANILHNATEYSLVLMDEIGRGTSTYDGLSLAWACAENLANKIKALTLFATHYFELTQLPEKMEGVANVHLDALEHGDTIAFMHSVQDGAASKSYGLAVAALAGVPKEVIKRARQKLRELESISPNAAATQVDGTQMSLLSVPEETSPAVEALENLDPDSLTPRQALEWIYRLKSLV

T2: mutS-A842E (Escherichia coli, UniProt P23909 1-853, A842E)
T2 sequence: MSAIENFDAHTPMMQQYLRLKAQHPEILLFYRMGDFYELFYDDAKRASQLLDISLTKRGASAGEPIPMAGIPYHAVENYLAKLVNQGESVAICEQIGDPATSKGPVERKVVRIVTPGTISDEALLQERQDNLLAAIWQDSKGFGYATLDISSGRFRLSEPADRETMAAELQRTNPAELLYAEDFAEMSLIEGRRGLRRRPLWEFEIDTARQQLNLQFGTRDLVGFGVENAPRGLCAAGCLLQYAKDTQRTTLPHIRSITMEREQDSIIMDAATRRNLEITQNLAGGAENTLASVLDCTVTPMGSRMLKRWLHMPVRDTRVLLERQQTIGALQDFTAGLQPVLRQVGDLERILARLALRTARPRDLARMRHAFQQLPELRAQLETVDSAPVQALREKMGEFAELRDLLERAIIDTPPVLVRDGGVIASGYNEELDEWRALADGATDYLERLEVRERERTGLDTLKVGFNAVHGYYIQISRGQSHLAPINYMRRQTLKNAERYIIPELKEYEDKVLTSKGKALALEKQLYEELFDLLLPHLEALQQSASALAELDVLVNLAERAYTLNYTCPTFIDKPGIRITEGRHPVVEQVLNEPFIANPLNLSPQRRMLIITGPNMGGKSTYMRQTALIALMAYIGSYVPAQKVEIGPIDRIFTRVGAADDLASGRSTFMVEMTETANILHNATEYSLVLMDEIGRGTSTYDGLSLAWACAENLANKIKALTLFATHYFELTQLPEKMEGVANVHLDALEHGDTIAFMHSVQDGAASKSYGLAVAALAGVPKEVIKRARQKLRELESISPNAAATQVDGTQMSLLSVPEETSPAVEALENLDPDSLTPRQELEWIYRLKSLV


Experiments:
MutS [1] = target: T1, MutS; experiment: FRET equilibrium titration
MutS [2] = target: T1, MutS; experiment: FRET equilibrium titration; remark: listed apart in the source
MutS [3] = target: T1, MutS; experiment: stopped-flow FRET kinetics
MutS [4] = target: T1, MutS; experiment: FRET equilibrium titration; remark: listed apart in the source
MutS [5] = target: T1, MutS; experiment: stopped-flow FRET kinetics; remark: listed apart in the source
MutS [6] = target: T1, MutS; experiment: FRET equilibrium titration; remark: listed apart in the source
MutS [7] = target: T1, MutS; experiment: stopped-flow FRET kinetics; remark: listed apart in the source
MutS [8] = target: T1, MutS; experiment: stopped-flow FRET kinetics; remark: listed apart in the source
MutS [9] = target: T1, MutS; experiment: FRET equilibrium titration; remark: listed apart in the source
MutS [10] = target: T1, MutS; experiment: stopped-flow FRET kinetics; remark: listed apart in the source
MutS [11] = target: T1, MutS; experiment: stopped-flow FRET kinetics; remark: listed apart in the source
mutS-A842E = target: T2, mutS-A842E; experiment: EMSA
MutS [12] = target: T1, MutS; experiment: stopped-flow FRET kinetics; remark: listed apart in the source

Binder | Kd (MutS [1]) [nM] | Kd (MutS [2]) [nM] | Kd (MutS [3]) [nM] | Kd (MutS [4]) [nM] | Kd (MutS [5]) [nM] | Kd (MutS [6]) [nM] | Kd (MutS [7]) [nM] | Kd (MutS [8]) [nM] | Kd (MutS [9]) [nM] | Kd (MutS [10]) [nM] | Kd (MutS [11]) [nM] | binding result (mutS-A842E) | Kd (MutS [12]) [nM]
30-GT (dsDNA) DNA 1: AACTGCCAGGCACCAGTGTCAGCGTCGTAT DNA 2: ATACGACGCTGACACTGGTGCTTGGCAGTT | 74 | 69 | 91 | ~176 | 26 |  |  |  |  |  |  |  | 
30-1ΔT (dsDNA) DNA 1: AACTGCCAGGCACCAGTGTCAGCGTCGTAT DNA 2: ATACGACGCTGACACTGGTGCCTTGGCAGTT | 62 |  | 91 |  |  | 123 | 39 | 27 | 56 | 321 | 137 | binds | 50

From paper PMC2666446 (Journal of molecular biology, 2008)
